The text below walks through data of the Human Domainome abundance scans (Beltran et al. 2025).

± gives the uncertainty stated by the source.

Sequences and labels used below:
B1: Cold shock protein CspB, residues 1 to 66; numbered along this chain, P41016 (parent)
chain: MQRGKVKWFNNEKGYGFIEVEGGSDVFVHFTAIQGEGFKTLEEGQEVSFEIVQGNRGPQAANVVKL

The data set covers variants of B1. Put plainly: abundance fitness (aPCA) (normalised: wild type 0, dead -1); higher = more abundant; growth selection in yeast, the domain comes from the species named. The settings on record: Bacillus caldolyticus.
Consider K39Q, for which the abundance fitness was -0.071 ± 0.044.

With K39N, the abundance fitness was -0.077 ± 0.058.

Regarding K39S, the abundance fitness is -0.072 ± 0.03.

Regarding K39L, the abundance fitness is -0.059 ± 0.034.

Take K39W: the abundance fitness was -0.194 ± 0.048.

Take K39H: the abundance fitness is -0.08 ± 0.064.

Turning to K39Y, the abundance fitness is -0.148 ± 0.062.

Take K39T: the abundance fitness is -0.103 ± 0.04.

Regarding K39V, the abundance fitness was -0.092 ± 0.038.

For the variant K39I, the abundance fitness is -0.133 ± 0.064.

K39A: the abundance fitness was -0.013 ± 0.049.

In the case of K39D, the abundance fitness is -0.148 ± 0.068.

On to K39M, for which the abundance fitness was -0.137 ± 0.038.

As to K39E, the abundance fitness is -0.114 ± 0.06.

On to K39R, for which the abundance fitness was -0.003 ± 0.037.

In the case of K39G, the abundance fitness was -0.154 ± 0.045.

With K39P, the abundance fitness is -0.149 ± 0.035.

Regarding K39C, the abundance fitness is -0.08 ± 0.051.

Take A32N: the abundance fitness is -0.045 ± 0.058.

As to A32Y, the abundance fitness is -0.263 ± 0.063.

Turning to A32K, the abundance fitness was -0.044 ± 0.049.

Turning to A32L, the abundance fitness is -0.472 ± 0.025.

A32T: the abundance fitness is -0.105 ± 0.039.

A32S: the abundance fitness is -0.032 ± 0.034.

Regarding A32F, the abundance fitness is -0.129 ± 0.058.

With A32D, the abundance fitness is -0.129 ± 0.055.

A32Q: the abundance fitness was determined as 0.023 ± 0.055.

A32W: the abundance fitness is -0.351 ± 0.05.

For A32R, the abundance fitness is -0.084 ± 0.036.

As to A32M, the abundance fitness is -0.103 ± 0.048.

For A32I, the abundance fitness is -0.666 ± 0.068.

A32H: the abundance fitness was -0.099 ± 0.061.

For A32C, the abundance fitness is -0.083 ± 0.048.

For the variant A32G, the abundance fitness is -0.02 ± 0.037.

As to A32P, the abundance fitness was -0.507 ± 0.043.

For the variant E36L, the abundance fitness was -0.024 ± 0.031.

On to E36Q, for which the abundance fitness stood at 0.021 ± 0.079.

Consider E36N, for which the abundance fitness is -0.037 ± 0.11.

In the case of E36G, the abundance fitness was -0.004 ± 0.034.

In the case of E36R, the abundance fitness stood at 0.006 ± 0.039.

E36W: the abundance fitness is -0.017 ± 0.043.

E36C: the abundance fitness was -0.042 ± 0.058.

Consider E36D, for which the abundance fitness was -0.019 ± 0.063.

As for E36F, the abundance fitness is -0.023 ± 0.047.

On to E36S, for which the abundance fitness was -0.007 ± 0.036.

E36P: the abundance fitness was -0.017 ± 0.043.

Take E36H: the abundance fitness was -0.047 ± 0.085.

As for E36T, the abundance fitness was -0.006 ± 0.044.

For the variant E36V, the abundance fitness was -0.003 ± 0.033.

With E36M, the abundance fitness was -0.085 ± 0.046.

As to L41W, the abundance fitness was -0.359 ± 0.033.

Consider L41V, for which the abundance fitness is -0.042 ± 0.033.

L41R: the abundance fitness is -0.625 ± 0.03.

For the variant L41M, the abundance fitness was -0.01 ± 0.04.

As to L41N, the abundance fitness was -0.515 ± 0.062.

As to L41S, the abundance fitness was -0.433 ± 0.039.

For the variant L41Y, the abundance fitness is -0.368 ± 0.061.

With L41A, the abundance fitness is -0.111 ± 0.041.

Take L41D: the abundance fitness was -0.554 ± 0.069.

As for L41G, the abundance fitness was -0.355 ± 0.034.

As for L41H, the abundance fitness was -0.616 ± 0.063.

As for L41C, the abundance fitness was -0.121 ± 0.054.

Turning to L41K, the abundance fitness was -0.721 ± 0.047.

L41P: the abundance fitness is -0.46 ± 0.044.

With L41F, the abundance fitness is -0.199 ± 0.047.

For the variant L41I, the abundance fitness worked out at 0.003 ± 0.064.

With L41E, the abundance fitness was -0.482 ± 0.044.

Regarding L41T, the abundance fitness is -0.299 ± 0.037.

Turning to G23S, the abundance fitness was 0.011 ± 0.034.

Take G23V: the abundance fitness is -0.021 ± 0.038.

For the variant G23Y, the abundance fitness is -0.061 ± 0.048.

Take G23T: the abundance fitness amounted to 0.003 ± 0.052.

Consider G23W, for which the abundance fitness was -0.057 ± 0.04.

As for G37I, the abundance fitness was -0.18 ± 0.054.

As to G37V, the abundance fitness is -0.086 ± 0.033.

Consider G37E, for which the abundance fitness is -0.05 ± 0.043.

As for G37Q, the abundance fitness was -0.078 ± 0.056.

For G37F, the abundance fitness was -0.153 ± 0.055.

With G37S, the abundance fitness is -0.072 ± 0.034.

In the case of G37W, the abundance fitness is -0.141 ± 0.041.

As for G37L, the abundance fitness was -0.126 ± 0.029.

Turning to G37M, the abundance fitness was -0.117 ± 0.034.

Take G37Y: the abundance fitness is -0.074 ± 0.059.

As for G37P, the abundance fitness is -0.119 ± 0.048.

Regarding G37H, the abundance fitness was -0.036 ± 0.048.

For G37A, the abundance fitness is -0.082 ± 0.035.

Turning to G37T, the abundance fitness is -0.069 ± 0.041.

In the case of G37D, the abundance fitness was -0.133 ± 0.074.

For G37C, the abundance fitness was -0.049 ± 0.048.

G37R: the abundance fitness is -0.083 ± 0.034.

Take V28N: the abundance fitness is -0.999 ± 0.34.

Consider V28G, for which the abundance fitness was -0.638 ± 0.041.

For V28Y, the abundance fitness is -0.27 ± 0.061.

For V28H, the abundance fitness is -1.04 ± 0.21.

Take V28L: the abundance fitness was -0.107 ± 0.029.

In the case of V28I, the abundance fitness is -0.048 ± 0.05.

Turning to V28P, the abundance fitness was -0.693 ± 0.088.

As for V28C, the abundance fitness came out at 0.017 ± 0.048.

Regarding V28W, the abundance fitness was -0.675 ± 0.036.

Regarding V28S, the abundance fitness is -0.355 ± 0.03.

For V28Q, the abundance fitness is -0.901 ± 0.084.

With V28D, the abundance fitness was -0.912 ± 0.14.

V28A: the abundance fitness is -0.1 ± 0.045.

V28F: the abundance fitness was -0.062 ± 0.058.

In the case of V28M, the abundance fitness is -0.153 ± 0.055.

For V28E, the abundance fitness is -1.1 ± 0.15.

Turning to V28T, the abundance fitness is -0.05 ± 0.047.

With V28R, the abundance fitness was -0.993 ± 0.05.

As to F38M, the abundance fitness was -0.075 ± 0.046.

As to F38L, the abundance fitness is -0.086 ± 0.027.

As for F38Y, the abundance fitness is -0.009 ± 0.057.

For the variant F38Q, the abundance fitness was -0.005 ± 0.064.

For the variant F38S, the abundance fitness is -0.057 ± 0.037.

F38H: the abundance fitness is -0.132 ± 0.067.

Consider F38K, for which the abundance fitness was -0.049 ± 0.051.

As for F38V, the abundance fitness is -0.044 ± 0.03.

Turning to F38T, the abundance fitness is -0.119 ± 0.064.

In the case of F38N, the abundance fitness was 0.004 ± 0.14.

For the variant F38W, the abundance fitness was 0.024 ± 0.046.

For F38E, the abundance fitness is -0.078 ± 0.043.

On to F38D, for which the abundance fitness is -0.12 ± 0.054.

Consider F38I, for which the abundance fitness is -0.041 ± 0.067.

Take F38G: the abundance fitness is -0.048 ± 0.032.

With F38C, the abundance fitness is -0.103 ± 0.058.

F38R: the abundance fitness is -0.041 ± 0.031.

Take D25M: the abundance fitness was -0.153 ± 0.043.

Turning to D25W, the abundance fitness was -0.26 ± 0.036.

For D25Y, the abundance fitness was -0.231 ± 0.06.

D25F: the abundance fitness was -0.251 ± 0.054.

Consider D25Q, for which the abundance fitness was -0.073 ± 0.054.

As to D25G, the abundance fitness is -0.257 ± 0.047.

In the case of D25P, the abundance fitness was -0.093 ± 0.036.

Regarding D25V, the abundance fitness is -0.141 ± 0.035.

Regarding D25A, the abundance fitness is -0.113 ± 0.04.

Turning to D25T, the abundance fitness is -0.073 ± 0.041.

For D25E, the abundance fitness was -0.082 ± 0.043.

For D25S, the abundance fitness was -0.053 ± 0.032.

Regarding D25K, the abundance fitness is -0.093 ± 0.046.

In the case of D25I, the abundance fitness is -0.214 ± 0.063.

Turning to D25N, the abundance fitness was -0.047 ± 0.08.

As to D25H, the abundance fitness was -0.102 ± 0.064.

Consider T31R, for which the abundance fitness was -0.044 ± 0.028.

As for T31E, the abundance fitness is -0.087 ± 0.068.

In the case of T31M, the abundance fitness is -0.13 ± 0.044.

Take T31Q: the abundance fitness is -0.132 ± 0.061.

Turning to T31Y, the abundance fitness was -0.3 ± 0.055.

With T31I, the abundance fitness is -0.314 ± 0.053.

Regarding T31N, the abundance fitness was -0.127 ± 0.066.

Regarding T31G, the abundance fitness was -0.079 ± 0.044.

Regarding T31K, the abundance fitness was -0.066 ± 0.054.

Consider T31F, for which the abundance fitness is -0.431 ± 0.052.

In the case of T31W, the abundance fitness was -0.289 ± 0.035.

In the case of T31D, the abundance fitness is -0.141 ± 0.11.

Turning to T31A, the abundance fitness is -0.134 ± 0.049.

In the case of T31V, the abundance fitness is -0.345 ± 0.043.

For the variant T31C, the abundance fitness is -0.146 ± 0.05.

For the variant T31S, the abundance fitness was -0.011 ± 0.032.

Take T31H: the abundance fitness was -0.074 ± 0.077.

Consider E42V, for which the abundance fitness is -0.008 ± 0.028.

Regarding E42K, the abundance fitness turned out to be 0.017 ± 0.06.

As for E42P, the abundance fitness was -0.043 ± 0.042.

For E42I, the abundance fitness was -0.051 ± 0.055.

Regarding E42C, the abundance fitness is -0.013 ± 0.064.

On to E42A, for which the abundance fitness was determined as 0.018 ± 0.041.

As for E42D, the abundance fitness is 0.004 ± 0.072.

Consider E42T, for which the abundance fitness is -0.011 ± 0.052.

For E42N, the abundance fitness is -0.02 ± 0.065.
